The test has as its target F-actin (endogenous, detected with anti-beta-actin antibodies) (rat (endogenous in hippocampal neurons)) (UniProt P60711). The test is described as follows: FRET or BRET; antibody-based acceptor-photobleaching FRET in fixed rat hippocampal neurons, single dendritic spine heads; anti-cofilin AE774 with Alexa 488 secondary (donor), anti-beta-actin AC15 with Alexa 555 secondary (acceptor); F-actin fixed, G-actin mostly extracted; control neurons, 2 min NMDA (nLTD), chronophin (CIN) overexpression. (Bioluminescence resonance energy transfer reports proximity on the nanometre scale.)

As for “cofilin (endogenous cofilin/ADF of rat hippocampal neurons) (from UniProt P45592 1-166) (natural protein)”, the ratio of FRET in the presence versus the absence of nLTD, CIN-expressing neurons came to 51%.

Source of the values: paper PMC3989342.
